Several values for one entry are separate records, joined by “and”; a condition that tells them apart may be missing. Equal values may be shown once.
Target: T1, rabbit GH receptor (rabbit) (UniProt P19941)
T1 sequence (looked up): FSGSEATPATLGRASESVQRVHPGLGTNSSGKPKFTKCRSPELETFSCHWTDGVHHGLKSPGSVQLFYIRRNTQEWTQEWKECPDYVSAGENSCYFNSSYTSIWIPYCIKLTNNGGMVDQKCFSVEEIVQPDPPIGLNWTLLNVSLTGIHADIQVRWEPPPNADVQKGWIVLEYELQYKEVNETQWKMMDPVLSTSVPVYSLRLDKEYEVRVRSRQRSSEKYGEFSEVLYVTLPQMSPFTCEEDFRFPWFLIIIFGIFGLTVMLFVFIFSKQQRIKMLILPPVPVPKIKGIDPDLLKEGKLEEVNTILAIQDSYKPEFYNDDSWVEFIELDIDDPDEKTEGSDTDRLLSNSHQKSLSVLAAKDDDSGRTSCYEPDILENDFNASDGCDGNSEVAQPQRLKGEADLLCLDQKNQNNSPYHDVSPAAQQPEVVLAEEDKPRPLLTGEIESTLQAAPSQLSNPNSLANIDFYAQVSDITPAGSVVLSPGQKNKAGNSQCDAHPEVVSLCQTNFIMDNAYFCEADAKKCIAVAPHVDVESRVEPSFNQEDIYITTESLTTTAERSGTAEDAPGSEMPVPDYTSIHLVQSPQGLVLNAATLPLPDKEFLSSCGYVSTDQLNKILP
Assay: cell-based or functional assay

Mean EC50 (ng/ml), proliferation of GH-R4 cells (MTS) [ng/mL]	Substance	also measured
	PEG-S144C hGH (mono-PEGylated S144C) (from UniProt P01241 27-217) (ligand)	EC50 of single experiments, cell proliferation assay (Example 1): 40 ng/mL and 45 ng/mL
1.6	hGH cysteine mutein S144C (from UniProt P01241 27-217) (ligand)	
1.4	hGH cysteine mutein T3C, disulfide-linked homodimer (from UniProt P01241 27-217) (ligand)	
	hGH cysteine mutein T148C (from UniProt P01241 27-217) (ligand)	Mean EC50 (ng/ml), proliferation of GH-R4 cells (MTS); T148C-lotA: 0.5 ng/mL; Mean EC50 (ng/ml), proliferation of GH-R4 cells (MTS); T148C-lotB: 2.5 ng/mL
0.8	wild-type rhGH (secreted from E. coli with the stII signal sequence) (from UniProt P01241 27-217) (ligand)	

— patent publication US20050026834A1
